Earlier results, collected in patent US12129294B2, “Methods of treatment of diseases in which IL-13 activity is detrimental using anti-IL-13 antibodies” (AbbVie Inc., priority 2016, dated 2024).

Test system: eosinophilic esophagitis (EoE)
Details: QAX576 study, N = 17, cited from earlier work

B1: QAX576: anti-IL-13 antibody dectrekumab (QAX-576), comparator study in Table 6 (antibody, chains of the INN, looked up, V domains shown)
VH: EVQLVESGGGVVQPGRSLRLSCAASGFTFSSYGMHWVRQAPGKGLEWVAIIWYDGSNKYYADSVKGRFTISRDNSKNTLYLQMNSLRAEDTAVYYCARLWFGDLDAFDIWGQGTMVTVSS
VL: EIVLTQSPATLSLSPGERAILSCRAGQSVSSYLVWYQQKPGQAPRLLIYDASNRATGIPARFSGSGSGTDFTLTISSLEPEDFAVYYCQQRSSWPPVYTFGQGTKLEIK
EEOC Mean BL (baseline): 35.4
EEOC Peak BL (baseline): 88.2
EEOC Mean post (post treatment): 14.6
